Test results reported in patent publication US5942405A, “Therapeutic and screening methods using C3a receptor and C3a” (priority 1997, dated 1999).
Entries after “also recorded” stand apart in the source; their conditions may differ.

T1: C3a Receptor (Homo sapiens, UniProt Q16581)
T1 sequence (Q16581 1-482 F151C): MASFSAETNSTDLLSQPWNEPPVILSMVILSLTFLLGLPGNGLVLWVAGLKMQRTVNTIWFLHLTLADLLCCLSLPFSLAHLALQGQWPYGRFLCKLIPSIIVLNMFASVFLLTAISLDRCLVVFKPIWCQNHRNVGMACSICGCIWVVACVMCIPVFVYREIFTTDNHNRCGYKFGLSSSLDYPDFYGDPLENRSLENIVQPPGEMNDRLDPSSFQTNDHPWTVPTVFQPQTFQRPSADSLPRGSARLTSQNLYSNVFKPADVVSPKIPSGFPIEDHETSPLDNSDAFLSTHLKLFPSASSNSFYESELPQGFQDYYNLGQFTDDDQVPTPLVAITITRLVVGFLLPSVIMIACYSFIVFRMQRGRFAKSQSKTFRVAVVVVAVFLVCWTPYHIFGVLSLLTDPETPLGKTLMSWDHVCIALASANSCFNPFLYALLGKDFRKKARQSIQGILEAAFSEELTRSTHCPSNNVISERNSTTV

B1: rC5a: Human rC5a was expressed in E. coli and purified to homogeneity (protein, UniProt P01031 678-751, looked up)
C5a anaphylatoxin: TLQKKIEEIAAKYKHSVVKKCCYDGACVNNDETCEQRAARISLGPRCIKAFTECCVVASQLRANISHKDMQLGR
modifications: C5a anaphylatoxin recombinant, E. coli
notes: Human rC5a was expressed in E. coli and purified to homogeneity

Columns and labels:
C3a Receptor [1] = target: T1, C3a Receptor; experiment: C3a binding to HEK 293 cells stably expressing C3a Receptor mRNA; set-up: cDNA encoding a complete orphan GPCR of 482 amino acids; expressed in transfected cells; conditions: data not shown
From the text: C3a was radioiodinated and used in whole cell binding assays to further characterize C3a Receptor. […] Curiously, HEK 293 cells stably expressing C3a Receptor mRNA by Northern Blot, neither bound nor responded to C3a (data not shown).

guinea pig ileal tissue = conditions: C3a and C4a; cited from earlier work
C3a Receptor [2] = target: T1, C3a Receptor; experiment: Electrophysiological response (Ca2+ mediated chloride currents, two electrode voltage clamp) of Xenopus oocytes injected with C3a Receptor cRNA; assay type: cell-based; set-up: cDNA encoding a complete orphan GPCR of 482 amino acids; expressed in transfected cells; host or cells: Xenopus laevis oocytes microinjected with cRNA, with or without U937 total RNA; conditions: for electrophysiological response of oocytes expressing C3a Receptor: oocytes co-injected with C3a Receptor cRNA (10 ng) and U937 RNA (25 ng), ligands 10 nM; for electrophysiological response of oocytes injected with C3a Receptor cRNA or U937 RNA alone: 10 nM ligand
Procedure: (§1) (A) Electrophysiological response of Xenopus oocytes injected with cRNA for C3a Receptor (10 ng), total U937 RNA (25 ng), or a mixture of C3a Receptor (10 ng) and U937 RNA (25 ng) to 10 nM rC5a, 10 nM C3a analogue peptide, 10 nM platelet activating factor (PAF), 10 nM fMetLeuPhe. Inset, represents typical response of oocytes co-injected with C3a Receptor cRNA+U937 RNA to 10 nM C3a. (B) Electrophysiological response of oocytes injected with C5a-R cRNA (10 ng), U937 RNA (25 ng) or a mixture of C5a-R and U937 RNA, to 10 nM rC5a or 10 nM C3a analogue peptide. […] Calcium mobilization by Fura 2 loaded cells expressing C5a receptor (FIGS. 4A & 4C) or C3a Receptor (FIGS. 4B & 4D) in response to rC5a (10 nM, FIG. 4A or 100 nM, FIG. 4B) or C3a analogue peptide (1 uM, FIGS. 4C & 4D).
Capped cRNA transcripts were generated from linearized C3a Receptor and C5a-R plasmid DNA as previously described (Kumar, C. S., et al (1989) J. Biol. Chem. 264, 17939-17946) and suspended in sterile water at a concentration of 0.2 μg/μl. Ovarian lobes were surgically removed from adult female Xenopus laevis frogs and defolliculated Stage V oocytes were harvested by manual dissection (Smith, L. D., et al (1991) Methods in Cell Biology, 36, 45-54. Edited by B. K. Kay and H. B. Peng, Academic Press Inc., New York.). Oocytes were microinjected with C3a Receptor or C5a-R cRNA transcripts (10 ng/oocyte) with or without U937 total RNA (25 ng/oocyte) in a 50 nl volume using a Drummond microinjection apparatus and maintained in modified Barth's saline (Power, C. A., et al (1995) J. Biol. Chem., 270,19495-19500 ) at 18° C. Electrophysiological recordings from an average of 10 oocytes were made 48 h later at room temperature using the two electrode voltage clamp (Warner Instruments) technique. Membrane potentials were routinely clamped at -60 mV. Results represent average response determined in three separate experiments.
The chemotactic receptors for C5a and the fMLP-R have previously been functionally expressed in Xenopus laevis oocytes (Kroll, B., et al (1991) FEBS Lett. 291, 208-210; Murphy, P. M. & McDermott, D. (1991) J Biol. Chem. 266, 12560-12567; Murphy, P. M., Gallin, E. K., and Tiffany, H. L. (1990) J Immunol. 145, 2227-2234; Schultz, P., et al (1992) Cellular Signalling 4, 153-161) and, unlike all other GPCRs tested in this system, injection of cRNA for the cloned chemotactic receptors alone is insufficient to stimulate signal transduction in response to ligand binding (Kroll, B., et al (1991) FEBS Lett. 291, 208-210; Murphy, P. M. & McDermott, D. (1991) J Biol. Chem. 266, 12560-12567). Functional expression of both of these chemotactic receptors, as monitored by induction of Ca^2+ mediated chloride currents, requires the co-injection of a complimentary human factor which can be supplied by total RNA from myeloid or liver cells (Kroll, B., et al (1991) FEBS Lett. 291, 208-210; Murphy, P. M. & McDermott, D. (1991) J Biol. Chem. 266, 12560-12567). The co-factor is required for receptor-mediated signal transduction but not for expression of the C5a-R or fMLF-R on the surface of the oocytes (Murphy, P. M., et al (1990) J Immunol. 145, 2227-2234). […] Xenopus oocytes were used to functionally characterize C3a Receptor. […] Like the C5a-R and the fMLF-R, the response was dependent on the co-injection of a cofactor present in total HL-60 or U937 RNA. […] (FIG. 3B). Both the C5a-R as well as C3a Receptor elicited in oocytes a promiscuous response to the two anaphylatoxins.

C5a-R = experiment: Electrophysiological response (Ca2+ mediated chloride currents, two electrode voltage clamp) of Xenopus oocytes injected with C5a-R cRNA; assay type: cell-based, human; conditions: oocytes co-injected with C5a-R cRNA (10 ng) and U937 RNA (25 ng), ligands 10 nM
Procedure: as §1
Commercially prepared (Clontech, Palo Alto, Calif.) multiple tissue blots containing approximately 2 μg poly-A mRNA per lane were sequentially hybridized with random primer ^32 P-labeled cDNAs spanning the coding regions of C5a-R and C3a Receptor. C5a-R was cloned via PCR from differentiated U937 RNA. Final washing step was carried out twice in 0.5× SSC, 1% SDS at 65° C. for 20 min.
Capped cRNA transcripts were generated from linearized C3a Receptor and C5a-R plasmid DNA as previously described (Kumar, C. S., et al (1989) J. Biol. Chem. 264, 17939-17946) and suspended in sterile water at a concentration of 0.2 μg/μl. […] Results represent average response determined in three separate experiments.
The chemotactic receptors for C5a and the fMLP-R have previously been functionally expressed in Xenopus laevis oocytes (Kroll, B., et al (1991) FEBS Lett. 291, 208-210; Murphy, P. M. & McDermott, D. (1991) J Biol. Chem. 266, 12560-12567; Murphy, P. M., Gallin, E. K., and Tiffany, H. L. (1990) J Immunol. 145, 2227-2234; Schultz, P., et al (1992) Cellular Signalling 4, 153-161) and, unlike all other GPCRs tested in this system, injection of cRNA for the cloned chemotactic receptors alone is insufficient to stimulate signal transduction in response to ligand binding (Kroll, B., et al (1991) FEBS Lett. 291, 208-210; Murphy, P. M. & McDermott, D. (1991) J Biol. Chem. 266, 12560-12567). Functional expression of both of these chemotactic receptors, as monitored by induction of Ca^2+ mediated chloride currents, requires the co-injection of a complimentary human factor which can be supplied by total RNA from myeloid or liver cells (Kroll, B., et al (1991) FEBS Lett. 291, 208-210; Murphy, P. M. & McDermott, D. (1991) J Biol. Chem. 266, 12560-12567). […]

Row | Molecule | binding of C3a to HEK 293 cells expressing C3a Receptor mRNA (C3a Receptor [1]) | cross desensitization of guinea pig ileal tissue (guinea pig ileal tissue) | electrophysiological response of oocytes expressing C3a Receptor (C3a Receptor [2]) | electrophysiological response of oocytes expressing C3a Receptor (C3a Receptor [2]; listed as native ligand) | electrophysiological response of oocytes expressing C5a-R (C5a-R) | electrophysiological response of oocytes expressing C5a-R (C5a-R; listed as native ligand) | electrophysiological response of oocytes injected with C3a Receptor cRNA or U937 RNA alone (C3a Receptor [2]) | electrophysiological response of oocytes expressing C3a Receptor (C3a Receptor [2]; listed as C3a carboxy-terminal analog synthetic peptide) | electrophysiological response of oocytes expressing C3a Receptor (C3a Receptor [2]; listed as C5a) | electrophysiological response of oocytes expressing C5a-R (C5a-R; listed as C5a)
1 | C3a: C3a was purchased from Advanced Research Technologies, San Diego; anaphylatoxin; radioiodinated for binding | neither bound | cross desensitize | respond | elicited similar responses | smaller response; also recorded: respond | elicited similar responses | – | – | – | –
2 | WWGKKYRASKLGLAR [C3a analogue synthetic peptide, reference compound] | – | – | respond | – | – | – | did not elicit any response | elicited an electrophysiological response | – | –
3 | B1 | – | – | – | – | induced rapid activation of chloride currents | – | did not elicit any response | – | respond | respond
